According to patent US20260116980A1 (BEONE MEDICINES I, published 2026):
Substitutions are numbered along the chain they refer to. In names and notes the source's numbering stands.

T1: cyno B7H3 on overexpressing cells (cyno, UniProt A0A7N9CYV2 29-534)
T1 sequence: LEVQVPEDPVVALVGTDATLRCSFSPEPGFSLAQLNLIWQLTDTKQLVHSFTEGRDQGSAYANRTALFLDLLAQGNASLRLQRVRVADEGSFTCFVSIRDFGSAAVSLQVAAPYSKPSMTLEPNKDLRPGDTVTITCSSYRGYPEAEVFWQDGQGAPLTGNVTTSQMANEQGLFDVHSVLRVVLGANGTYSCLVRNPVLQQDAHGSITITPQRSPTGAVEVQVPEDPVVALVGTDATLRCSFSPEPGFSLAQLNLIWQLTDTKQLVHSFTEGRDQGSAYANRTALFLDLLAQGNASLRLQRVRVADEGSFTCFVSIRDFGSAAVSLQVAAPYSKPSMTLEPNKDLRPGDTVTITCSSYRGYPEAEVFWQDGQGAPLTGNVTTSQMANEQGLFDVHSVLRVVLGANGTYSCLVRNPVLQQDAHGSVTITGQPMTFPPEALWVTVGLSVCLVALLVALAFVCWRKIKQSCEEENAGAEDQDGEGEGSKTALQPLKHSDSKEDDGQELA

T2: human 4Ig-B7H3 on overexpressing cells (NK92mi/B7H3) (human, UniProt Q5ZPR3 29-534)
T2 construct: also called Human B7H3; native B7H3
T2 sequence: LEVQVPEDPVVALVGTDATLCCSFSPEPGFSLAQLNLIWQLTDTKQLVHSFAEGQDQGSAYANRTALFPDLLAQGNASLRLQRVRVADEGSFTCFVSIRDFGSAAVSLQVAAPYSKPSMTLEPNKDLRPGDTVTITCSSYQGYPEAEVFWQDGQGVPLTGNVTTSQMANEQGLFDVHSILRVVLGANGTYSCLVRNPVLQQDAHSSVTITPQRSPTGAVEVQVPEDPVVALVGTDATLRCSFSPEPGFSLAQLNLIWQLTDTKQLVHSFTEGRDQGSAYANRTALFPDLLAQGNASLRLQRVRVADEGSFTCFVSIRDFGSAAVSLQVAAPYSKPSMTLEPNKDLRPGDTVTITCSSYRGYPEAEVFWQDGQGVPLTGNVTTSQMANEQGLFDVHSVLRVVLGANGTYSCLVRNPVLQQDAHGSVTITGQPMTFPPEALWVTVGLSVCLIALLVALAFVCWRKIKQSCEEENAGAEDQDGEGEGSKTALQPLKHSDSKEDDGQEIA

T3: human ECD-4Ig-B7H3-hFc (human, UniProt Q5ZPR3 29-466)
T3 construct: also called Human B7H3; human B7H3 antigen
T3 sequence: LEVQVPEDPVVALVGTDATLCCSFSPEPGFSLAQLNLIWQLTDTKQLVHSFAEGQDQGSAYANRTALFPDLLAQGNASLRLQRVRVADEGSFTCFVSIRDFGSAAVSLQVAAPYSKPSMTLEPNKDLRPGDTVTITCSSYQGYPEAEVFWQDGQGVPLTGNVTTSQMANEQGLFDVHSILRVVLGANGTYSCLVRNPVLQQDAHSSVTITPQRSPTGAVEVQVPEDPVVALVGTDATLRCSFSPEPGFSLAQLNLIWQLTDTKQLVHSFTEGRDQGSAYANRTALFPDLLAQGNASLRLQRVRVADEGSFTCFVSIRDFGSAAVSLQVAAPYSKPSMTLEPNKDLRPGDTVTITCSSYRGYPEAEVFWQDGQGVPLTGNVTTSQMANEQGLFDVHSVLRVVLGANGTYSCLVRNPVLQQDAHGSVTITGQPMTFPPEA

T4: ECD of human 4Ig-B7H3 (Sinobiological, Cat: 11188-H08H) (human, UniProt Q5ZPR3 29-466)
T4 construct: Bought protein; also called recombinant B7H3
T4 sequence: T3 sequence

B1: BGA-3726 (purified anti-B7H3 mAb as used in Examples 2-4) (antibody, V domains shown)
VH: QVQLQESGPGLVKPSGTLSLTCAVSGGSISTSNWWNWVRQSPGKGLEWIGEIYPTGNTNYSPSLKSRVTISIDKSKNQFSLKLNSVTAADTAVYYCARGWNWFDPWGQGTLVTVSS
VL: EIVLTQSPGTLSLSPGERATLSCRTSQSINGILLAWYQQKPGQAPRLLIYGASSRATGIPDRFSGSGSGTDFTLSISRLEPEDFAVYYCQQYGSSPRTFGQGTKVEIK
notes: It was captured by anti-mouse IgG Fc in SPR and detected with anti-mouse IgG in FACS; The source mice make human variable and rat constant regions; also called BGA-3276
B2: BGA-3726 in human full-length format (human IgG1 variant IgG1mf / kappa) (antibody, V domains shown)
VH: B1 VH
VL: EIVLTQSPGTLSLSPGERATLSCRTSQSINGILLAWYQQKPGQAPRLLIYGASSRATGIPDRFSGSGSGTDFTLSISRLEPEDFAVYYCQQYGSSPRTFGQGTKVEIKR
B3: BGA-4265 (BGA-3726 variant comprising G30A in LCDR1) (antibody, human IgG1, kappa, V domains shown)
VH: B1 VH
VL: B2 VL with G31A
B4: BGA-4269 (BGA-3726 variant comprising W98Y in HCDR3) (antibody, human IgG1, kappa, V domains shown)
VH: B1 VH with W102Y
VL: B2 VL
B5: BGA-4380 (BGA-3726 variant comprising N29Q in LCDR1) (antibody, human IgG1, kappa, V domains shown)
VH: B1 VH
VL: B2 VL with N30Q
B6: BGA-4498 (BGA-3726 variant comprising W96Y in HCDR3) (antibody, human IgG1, kappa, V domains shown)
VH: B1 VH with W100Y
VL: B2 VL
B7: BGA-4826 (BGA-3726 variant comprising W34Y in HCDR1) (antibody, human IgG1, kappa, V domains shown)
VH: B1 VH with W34Y
VL: B2 VL
B8: BGA-5488 (W34Y in HCDR1, W96Y and W98Y in HCDR3 and G30A in LCDR1 based on BGA-3726) (antibody, human IgG1, kappa, V domains shown)
VH: B1 VH with W34Y, W100Y, W102Y
VL: B2 VL with G31A
B9: BGA-6938 (W34Y in HCDR1, W96Y in HCDR3 and G30A in LCDR1 based on BGA-3726), human IgG1 variant IgG1mf / kappa format (antibody, V domains shown)
VH: B1 VH with W34Y, W100Y
VL: B2 VL with G31A

Columns and labels:
[1] = molecular target: T1, cyno B7H3 on overexpressing cells; test: FACS on cyno B7H3 overexpressing cells
Protocol: (§1) The binding affinity of anti-B7H3 mAb to human 4Ig-B7H3 and cyno B7H3 overexpressing cell lines were determined by FACS. Briefly, human or cyno B7H3 overexpressing cells were incubated with serially diluted purified antibodies, washed, and incubated with anti-mouse IgG secondary Ab conjugated to APC. After incubation and washing, fluorescence was measured by flow cytometry.

[2] = molecular target: T2, human 4Ig-B7H3 on overexpressing cells …; test: FACS on human 4Ig-B7H3 overexpressing cells
Protocol: as §1

human ECD-4Ig-B7H3-hFc = molecular target: T3, human ECD-4Ig-B7H3-hFc; test: SPR (BIAcore T-200), antibody captured by anti-mouse IgG Fc, antigen in flow, 1:1 Langmuir model
Excerpt: After immobilization, serial dilutions of the ectodomain of human or cyno B7H3 were passed over the chip. […] Thus, the light gray lines are serial dilutions of human B7H3 protein, and the dark gray lines are fitted curves corresponding to different human B7H3 concentrations. The dotted line is the highest concentration of B7H3 protein. The results were used to calculate the rates of association (Kon) and dissociation (Koff) for BGA-3295.
Briefly, anti-mouse IgG Fc antibody was immobilized on an activated CM5 biosensor chip (Cat. No. BR100530, GE Life Sciences). Purified antibodies were flowed over the chip surface and captured by anti-mouse IgG Fc antibody. Then a serial dilution of human ECD-4Ig-B7H3-hFc was flowed over the chip surface and changes in surface plasmon resonance signals were analyzed to calculate the association rates (kₒₙ) and dissociation rates (koff) by using the one-to-one Langmuir binding model (BIA Evaluation Software, GE Life Sciences). The equilibrium dissociation constant (KD) was calculated as the ratio koff/kₒₙ.

[3] = molecular target: T4, ECD of human 4Ig-B7H3 (Sinobiological, …); test: SPR, antibody captured on anti-human Fc surface, Test 1
Excerpt: (§2) For affinity determination, antibodies were captured by an anti-human Fc surface, and used in the affinity-assay based on surface plasmon resonance (SPR) technology. The results of SPR-determined binding profiles of anti-B7H3 antibodies to the ECD of human 4Ig-B7H3 (Sinobiological, Cat: 11188-H08H) are summarized in Table 5.

[4] = molecular target: T4, ECD of human 4Ig-B7H3 (Sinobiological, …); test: SPR, antibody captured on anti-human Fc surface, Test 2
Excerpt: as §2

[5] = molecular target: T2, human 4Ig-B7H3 on overexpressing cells …; test: FACS on live NK92mi/B7H3 cells, goat anti-human IgG detection, Test1
Protocol: (§3) Goat anti-human IgG was used as the second antibody to detect antibody binding to the cell surface. EC₅₀ values for dose-dependent binding to human native B7H3 were determined by fitting the dose-response data to the four-parameter logistic model with GraphPad Prism.

[6] = molecular target: T2, human 4Ig-B7H3 on overexpressing cells …; test: FACS on live NK92mi/B7H3 cells, goat anti-human IgG detection, Test2
Protocol: as §3

| Binder | Kd [3] | koff [3] | kon [3] | Kd [4] | koff [4] | kon [4] | other results |
| --- | --- | --- | --- | --- | --- | --- | --- |
| B1 |  |  |  |  |  |  | EC50 [1]: 1.32 nM; EC50 [2]: 1.91 nM; Kd (human ECD-4Ig-B7H3-hFc): 0.0124 nM; koff (human ECD-4Ig-B7H3-hFc): 4.49e-06 s⁻¹; kon (human ECD-4Ig-B7H3-hFc): 363000 M⁻¹ s⁻¹ |
| B2 | 0.424 nM | 0.000136 s⁻¹ | 321000 M⁻¹ s⁻¹ | 0.47 nM | 0.000207 s⁻¹ | 442000 M⁻¹ s⁻¹ | EC50 [5]: 1.44 nM |
| B3 | 0.308 nM | 0.000128 s⁻¹ | 414000 M⁻¹ s⁻¹ |  |  |  |  |
| B4 |  |  | 142000 M⁻¹ s⁻¹ |  |  |  |  |
| B5 | 0.635 nM | 0.000237 s⁻¹ | 373000 M⁻¹ s⁻¹ |  |  |  |  |
| B6 | 0.632 nM | 0.000199 s⁻¹ | 315000 M⁻¹ s⁻¹ |  |  |  |  |
| B7 | 0.596 nM | 0.000171 s⁻¹ | 288000 M⁻¹ s⁻¹ |  |  |  |  |
| B8 |  |  |  | 1.11 nM | 0.000326 s⁻¹ | 295000 M⁻¹ s⁻¹ | EC50 [6]: 1.45 nM |
| B9 |  |  |  | 0.443 nM | 0.000224 s⁻¹ | 506000 M⁻¹ s⁻¹ | EC50 [6]: 1.19 nM |
